Assays:
[1] = target: HIV-1 Env of strain Q461.e2 (HIV-1)
[2] = target: HIV-1 Env of strain Ce1176_A3 (HIV-1)
[3] = target: HIV-1 Env of strain 3817.v2.c59 (HIV-1)
[4] = target: HIV-1 Env of strain SC422661.8 (HIV-1)
[5] = target: HIV-1 Env of strain Du156.12 (HIV-1)
[6] = target: HIV-1 Env of strain 6545.v4.c1 (HIV-1)
[7] = target: HIV-1 Env of strain X1254_c3 (HIV-1)
[8] = target: HIV-1 Env of strain T251-18 (HIV-1)
[9] = target: HIV-1 Env of strain X1193_c1 (HIV-1)
[10] = target: HIV-1 Env of strain CAP45.2.00.G3 (HIV-1)
[11] = target: HIV-1 Env of strain CNE21 (HIV-1)
[12] = target: HIV-1 Env of strain 6540.v4.c1 (HIV-1)
[13] = target: HIV-1 Env of strain AC10.0.29 (HIV-1)
[14] = target: HIV-1 Env of strain 0330.v4.c3 (HIV-1)
[15] = target: HIV-1 Env of strain CAP210.2.00.E8 (HIV-1)
[16] = target: HIV-1 Env of strain CAAN5342.A2 (HIV-1)
[17] = target: HIV-1 Env of strain 3103.v3.c10 (HIV-1)

## NIH45-46 IgG (wild type) (antibody)
[1]
  In vitro neutralization IC80: 0.291 µg/mL
[2]
  In vitro neutralization IC80: 3.17 µg/mL
[3]
  In vitro neutralization IC80: > 50 µg/mL
[4]
  In vitro neutralization IC80: 0.13 µg/mL
[5]
  In vitro neutralization IC80: 0.054 µg/mL
[6]
  In vitro neutralization IC80: > 50 µg/mL
[7]
  In vitro neutralization IC80: 0.107 µg/mL
[8]
  In vitro neutralization IC80: 3.68 µg/mL
[9]
  In vitro neutralization IC80: 0.064 µg/mL
[10]
  In vitro neutralization IC80: > 50 µg/mL
[11]
  In vitro neutralization IC80: 38.1 µg/mL
[12]
  In vitro neutralization IC80: > 50 µg/mL
[13]
  In vitro neutralization IC80: 1.93 µg/mL
[14]
  In vitro neutralization IC80: 0.3 µg/mL
[15]
  In vitro neutralization IC80: > 50 µg/mL
[16]
  In vitro neutralization IC80: 0.4 µg/mL
[17]
  In vitro neutralization IC80: 6.15 µg/mL

From US20200165325A1
